In article PMC5828407 (Veterinary Research, 2018):
Where no end group is shown, it is not given here. The star is where a group is joined. FITC = O=C1OC2(c3ccc(O)cc3Oc3cc(O)ccc32)c2ccc(NC(=S)*)cc21; Ahx = NCCCCCC(=O)O

B1: FaeG membrane spots 189–191 (200–218 AA), F4ad (peptide)
peptide: ARTELFGSLSKNDILGQIQ
B2: FaeG membrane spots 133–135 (200–218 AA), F4ac (peptide)
peptide: TKLFGSLSRNDILGQIQRV
B3: FaeG membrane spot 116 (149–161 AA), F4ac (peptide)
peptide: NASYAGVLGRGGV
B4: FaeG membrane spot 59 (175–187 AA), F4ab (peptide)
peptide: LRAIFYGGLTTTV
B5: FaeG membrane spot 172 (149–161 AA), F4ad (peptide)
peptide: ASYAGALGRGGVT
B6: FaeG membrane spot 125 (176–188 AA), F4ac (peptide)
peptide: LSSIFYGGLPRGS
B7: FaeG membrane spot 181 (176–188 AA), F4ad (peptide)
peptide: HAIFYGGLPTNVK
B8: FaeG membrane spot 50 (148–160 AA), F4ab (peptide)
peptide: NASYAGVFGKGGV
B9: peptide F4ad 200–218 (peptide)
peptide: {FITC-Ahx}-ARTELFGSLSKNDILGQIQ
B10: GST-tagged FaeG fusion protein of F4ad (natural protein)
chain: WMTGDFNGSVDIGGSITADDYRQKWEWKVGTGLNGFGNVLNDLTNGGTKLTITVTGNKPILLGRTKEAFATPVTSGVDGIPHIAFTDYEGASVELRNPDGETEKGLAYFVLPMKNAEGTKVGSVKVNASYAGALGRGGVTSADGELMSLFAEGSHAIFYGGLPTNVKNSELKGGSAAAARTELFGSLSKNDILGQIQRVNANITSLVNVPGSFNENMAYTDGSVVSVAYALGIANGQTIEATFNQAVTTSTQWSAPLNVAITYY
B11: peptide F4ac 200–218 (peptide)
peptide: {FITC-Ahx}-TKLFGSLSRNDILGQIQRV
B12: peptide F4ab 148–160 (peptide)
peptide: {FITC-Ahx}-NASYAGVFGKGGV
B13: GST-tagged FaeG fusion protein of F4ab (natural protein)
chain: WMTGDFNGSVDIGGSITADDYRQKWEWKVGTGLNGFGNVLNDLTNGGTKLTITVTGNKPILLGRTKEAFATPVSGGVDGIPQIAFTDYEGASVKLRNTDGETNKGLAYFVLPMKNAEGTKVGSVKVNASYAGVFGKGGVTSADGELFSLFADGLRAIFYGGLTTTVSGAALTSGSAAAARTELFGSLSRNDILGQIQRVNANITSLVDVAGSYREDMEYTDGTVVSAAYALGIANGQTIEATFNQAVTTSTQWSAPLNVAITYY
B14: APN∆1 (401–963 AA) (domain or fragment)
chain: DLWLNEGFASYVEYLGADHAEPTWNLKDLIVPGDVYRVMAVDALASSHPLTTPAEEVNTPAQISEMFDSISYSKGASVIRMLSNFLTEDLFKEGLASYLHAFAYQNTTYLDLWEHLQKAVDAQTSIRLPDTVRAIMDRWTLQMGFPVITVDTKTGNISQKHFLLDSESNVTRSSAFDYLWIVPISSIKNGVMQDHYWLRDVSQAQNDLFKTASDDWVLLNVNVTGYFQVNYDEDNWRMIQHQLQTNLSVIPVINRAQVIYDSFNLATAHMVPVTLALDNTLFLNGEKEYMPWQAALSSLSYFSLMFDRSEVYGPMKKYLRKQVEPLFQHFETLTKNWTERPENLMDQYSEINAISTACSNGLPQCENLAKTLFDQWMSDPENNPIHPNLRSTIYCNAIAQGGQDQWDFAWGQLQQAQLVNEADKLRSALACSNEVWLLNRYLGYTLNPDLIRKQDATSTINSIASNVIGQPLAWDFVQSNWKKLFQDYGGGSFSFSNLIQGVTRRFSSEFELQQLEQFKKNNMDVGFGSGTRALEQALEKTKANIKWVKENKEVVLNWFIEHS
B15: APN∆5 (332–963 AA) (domain or fragment)
chain: PLPKSDQIALPDFNAGAMENWGLVTYRENALLFDPQSSSISNKERVVTVIAHELAHQWFGNLVTLAWWNDLWLNEGFASYVEYLGADHAEPTWNLKDLIVPGDVYRVMAVDALASSHPLTTPAEEVNTPAQISEMFDSISYSKGASVIRMLSNFLTEDLFKEGLASYLHAFAYQNTTYLDLWEHLQKAVDAQTSIRLPDTVRAIMDRWTLQMGFPVITVDTKTGNISQKHFLLDSESNVTRSSAFDYLWIVPISSIKNGVMQDHYWLRDVSQAQNDLFKTASDDWVLLNVNVTGYFQVNYDEDNWRMIQHQLQTNLSVIPVINRAQVIYDSFNLATAHMVPVTLALDNTLFLNGEKEYMPWQAALSSLSYFSLMFDRSEVYGPMKKYLRKQVEPLFQHFETLTKNWTERPENLMDQYSEINAISTACSNGLPQCENLAKTLFDQWMSDPENNPIHPNLRSTIYCNAIAQGGQDQWDFAWGQLQQAQLVNEADKLRSALACSNEVWLLNRYLGYTLNPDLIRKQDATSTINSIASNVIGQPLAWDFVQSNWKKLFQDYGGGSFSFSNLIQGVTRRFSSEFELQQLEQFKKNNMDVGFGSGTRALEQALEKTKANIKWVKENKEVVLNWFIEHS

Each binder was assayed against T1, porcine aminopeptidase N (APN), His-tagged whole protein (porcine, UniProt P15145 1-963) (assay: peptide or protein array; FaeG membrane: 205 spots of 13-mers offset by 3 on cellulose membrane, incubated with 1 mg/mL purified soluble APN, blotted with polyclonal antibodies against APN; intensity > 30% of the strongest spot positive). Conditions: both partners purified.
T1 sequence: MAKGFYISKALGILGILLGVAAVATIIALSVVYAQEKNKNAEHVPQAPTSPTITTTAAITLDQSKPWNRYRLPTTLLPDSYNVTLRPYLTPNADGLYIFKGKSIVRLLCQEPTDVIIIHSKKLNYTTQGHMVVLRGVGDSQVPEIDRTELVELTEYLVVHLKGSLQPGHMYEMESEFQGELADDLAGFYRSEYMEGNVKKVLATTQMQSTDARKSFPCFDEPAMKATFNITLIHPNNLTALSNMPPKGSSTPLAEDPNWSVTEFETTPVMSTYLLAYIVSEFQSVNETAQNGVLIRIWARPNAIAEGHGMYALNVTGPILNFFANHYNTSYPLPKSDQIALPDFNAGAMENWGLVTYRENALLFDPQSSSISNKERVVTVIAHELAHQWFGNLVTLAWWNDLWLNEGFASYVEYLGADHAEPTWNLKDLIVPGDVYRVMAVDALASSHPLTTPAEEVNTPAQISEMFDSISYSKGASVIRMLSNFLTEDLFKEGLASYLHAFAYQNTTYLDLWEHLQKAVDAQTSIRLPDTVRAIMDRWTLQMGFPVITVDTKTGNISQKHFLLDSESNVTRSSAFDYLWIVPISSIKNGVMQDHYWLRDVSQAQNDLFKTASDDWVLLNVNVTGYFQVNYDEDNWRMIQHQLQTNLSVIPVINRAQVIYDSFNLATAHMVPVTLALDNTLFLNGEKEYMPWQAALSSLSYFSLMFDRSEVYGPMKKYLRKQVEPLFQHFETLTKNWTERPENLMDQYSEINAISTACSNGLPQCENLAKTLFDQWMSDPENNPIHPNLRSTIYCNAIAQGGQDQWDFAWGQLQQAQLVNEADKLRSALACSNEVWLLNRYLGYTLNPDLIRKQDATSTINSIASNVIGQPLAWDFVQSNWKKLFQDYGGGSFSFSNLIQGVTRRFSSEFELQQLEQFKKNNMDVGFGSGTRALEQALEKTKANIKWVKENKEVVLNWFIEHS
B1: binds.
B2: binds.
B3: binds.
B4: binds.
B5: binds.
B6: binds.
B7: binds.
B8: binds.

Each binder was assayed against T1, porcine aminopeptidase N (APN), … (assay: ELISA; APN protein coated on plates, incubated with FaeG peptides, fusion FaeG proteins or F4 fimbriae; absorbance at 450 nm). Conditions: both partners purified.
B9: binds.
B10: binds.
B11: binds.
B12: binds.
B13: binds.

Each binder was assayed against GST-tagged FaeG fusion protein of F4ac (Escherichia coli, UniProt P14190 22-283) (assay: ELISA; indirect ELISA: APN and its five truncated proteins coated at 100 μg/mL in carbonate-bicarbonate buffer pH 9.6, incubated with 100 μg/mL FaeG fusion protein, detected with anti-F4 monoclonal antibody). Conditions: both partners purified.
B14: binds.
B15: binds.

The binders below were run against B14 in the same assay as above. Conditions: both partners purified.
B10: binds.
B13: binds.

These binders were tested against B15 in the same assay as above. Conditions: both partners purified.
B10: binds.
B13: binds.
